{
  "source": "paper PMC6910952",
  "about": "(Nature Communications, 2019)",
  "binders": {"B1": {"name": "FlAsH-labeled His6-SUMO-yUfd1^288–305-GWCCPGCC (peptide, UniProt P53044 288-305, looked up)", "chain": "{His6-SUMO}-EPAKLDLPEGQLFFGFPMGWCCPGCC", "modifications": "cysteine pairing not given here; also: FlAsH label bound to CCPGCC motif", "notes": "the assay methods print 280-305; also called yUfd1-FlAsH; yUfd1 WT; source: E. coli Rosetta (DE3) (pCold-SUMO), purified (Ni-NTA, Resource Q), labeled with FlAsH-EDT2; not shown: His6, N-terminal, kept; SUMO, N-terminal, kept"}},
  "assay_in_all_cases": "fluorescence polarisation; fluorescence anisotropy; 1 nM FlAsH-labeled His6-SUMO-yUfd1 peptide, His6-yNpl4^113–580 in two-fold dilution series; 25 °C; 50 mM Tris-HCl pH 8.0, 100 mM NaCl, 5 mM β-mercaptoethanol, 0.1 g/L BSA",
  "settings_in_all_cases": "both partners purified",
  "key": {"His6-yNpl4^113–580": {"biological_target": "T1, His6-yNpl4^113–580 (Saccharomyces cerevisiae, UniProt P33755 113-580)", "T1 construct": "codon-optimized synthetic cDNA; also called WT; WT #1; source: E. coli Rosetta (DE3), purified (Ni-NTA, Resource Q); also in lysate, mixed with cells expressing GST-yUfd1 for co-purification; not shown: His6, N-terminal, kept", "T1 sequence (looked up)": "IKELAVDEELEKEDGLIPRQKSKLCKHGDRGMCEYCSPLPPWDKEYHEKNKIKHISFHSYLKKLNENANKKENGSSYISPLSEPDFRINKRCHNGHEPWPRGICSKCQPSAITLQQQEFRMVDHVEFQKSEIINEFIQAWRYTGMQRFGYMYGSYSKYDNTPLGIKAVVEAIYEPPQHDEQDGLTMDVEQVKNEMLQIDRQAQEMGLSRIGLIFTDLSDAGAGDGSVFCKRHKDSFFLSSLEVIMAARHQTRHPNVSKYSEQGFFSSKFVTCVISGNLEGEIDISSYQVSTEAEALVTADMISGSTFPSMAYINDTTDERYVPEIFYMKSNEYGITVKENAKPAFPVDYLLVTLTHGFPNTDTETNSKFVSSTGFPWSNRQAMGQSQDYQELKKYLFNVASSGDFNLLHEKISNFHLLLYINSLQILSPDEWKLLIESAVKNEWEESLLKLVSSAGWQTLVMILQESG"}, "His6-yNpl4^113–580 M357A": {"biological_target": "T2, His6-yNpl4^113–580 M357A (Saccharomyces cerevisiae, UniProt P33755 113-580, M357A)", "T2 construct": "also called yNpl4 M357A; source: E. coli Rosetta (DE3), purified (Ni-NTA, Resource Q); not shown: His6, N-terminal, kept", "T2 sequence (looked up)": "T1 sequence (looked up) with M245A"}, "His6-yNpl4^113–580 L353A": {"biological_target": "T3, His6-yNpl4^113–580 L353A (Saccharomyces cerevisiae, UniProt P33755 113-580, L353A)", "T3 construct": "also called yNpl4 L353A; source: E. coli Rosetta (DE3), purified (Ni-NTA, Resource Q); not shown: His6, N-terminal, kept", "T3 sequence (looked up)": "T1 sequence (looked up) with L241A"}, "His6-yNpl4^113–580 F419A": {"biological_target": "T4, His6-yNpl4^113–580 F419A (Saccharomyces cerevisiae, UniProt P33755 113-580, F419A)", "T4 construct": "also called yNpl4 F419A; source: E. coli Rosetta (DE3), purified (Ni-NTA, Resource Q); not shown: His6, N-terminal, kept", "T4 sequence (looked up)": "T1 sequence (looked up) with F307A"}},
  "note": "Residue numbers refer to the chain shown, from its start. Several values for one entry are separate records, joined by “and”; a condition that tells them apart may be missing. Equal entries are not always repeated. No end group written: not given here.",
  "data": [
    {"binder": "B1", "values": [
      {"measurement": "Kd", "setting": "His6-yNpl4^113–580", "value": "0.0857 µM and 0.0994 µM"},
      {"measurement": "Kd", "setting": "His6-yNpl4^113–580 M357A", "value": 0.164, "unit": "µM"},
      {"measurement": "Kd", "setting": "His6-yNpl4^113–580 L353A", "value": 1.38, "unit": "µM"},
      {"measurement": "Kd", "setting": "His6-yNpl4^113–580 F419A", "value": 0.158, "unit": "µM"}
    ]}
  ]
}
